Assays:
complement C8 = complement C8 (UniProt P07357 31-584; P07358 55-591; P07360 21-202); experiment: SPR
complement factor H = complement factor H (UniProt P08603 19-1231); experiment: SPR
Sequence of complement factor H (P08603 19-1231): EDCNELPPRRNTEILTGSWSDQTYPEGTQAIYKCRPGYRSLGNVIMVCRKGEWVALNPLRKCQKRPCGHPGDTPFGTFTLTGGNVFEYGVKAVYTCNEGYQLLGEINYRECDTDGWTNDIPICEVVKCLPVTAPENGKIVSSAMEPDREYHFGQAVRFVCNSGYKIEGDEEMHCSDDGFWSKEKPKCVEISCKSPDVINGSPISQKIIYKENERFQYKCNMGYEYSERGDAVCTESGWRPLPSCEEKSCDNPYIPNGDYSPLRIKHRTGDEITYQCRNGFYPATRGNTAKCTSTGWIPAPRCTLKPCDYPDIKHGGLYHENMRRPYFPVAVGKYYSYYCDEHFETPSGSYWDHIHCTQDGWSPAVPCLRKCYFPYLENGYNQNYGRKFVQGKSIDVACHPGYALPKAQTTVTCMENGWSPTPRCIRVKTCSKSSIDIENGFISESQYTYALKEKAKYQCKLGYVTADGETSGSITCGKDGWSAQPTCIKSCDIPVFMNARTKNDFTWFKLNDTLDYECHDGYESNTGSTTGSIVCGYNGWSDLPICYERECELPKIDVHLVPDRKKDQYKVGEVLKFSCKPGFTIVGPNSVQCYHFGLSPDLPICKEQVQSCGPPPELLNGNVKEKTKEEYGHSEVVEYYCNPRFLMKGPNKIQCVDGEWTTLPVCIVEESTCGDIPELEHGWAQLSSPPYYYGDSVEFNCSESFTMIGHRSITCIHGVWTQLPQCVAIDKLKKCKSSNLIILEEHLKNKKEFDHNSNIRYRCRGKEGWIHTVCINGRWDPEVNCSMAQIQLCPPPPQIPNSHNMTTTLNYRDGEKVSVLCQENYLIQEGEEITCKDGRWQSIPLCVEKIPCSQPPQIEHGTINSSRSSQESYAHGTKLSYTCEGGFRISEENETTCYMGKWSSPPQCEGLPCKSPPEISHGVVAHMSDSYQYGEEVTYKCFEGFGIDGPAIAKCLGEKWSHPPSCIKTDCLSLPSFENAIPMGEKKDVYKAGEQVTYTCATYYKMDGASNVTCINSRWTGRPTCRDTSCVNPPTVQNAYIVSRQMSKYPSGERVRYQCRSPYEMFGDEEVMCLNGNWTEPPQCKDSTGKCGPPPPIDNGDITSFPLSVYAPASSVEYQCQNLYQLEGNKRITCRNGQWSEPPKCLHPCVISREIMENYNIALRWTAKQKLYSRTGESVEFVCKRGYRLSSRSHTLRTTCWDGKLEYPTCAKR

Sequence of complement C8 (P07357 31-584, chain 1 of 3): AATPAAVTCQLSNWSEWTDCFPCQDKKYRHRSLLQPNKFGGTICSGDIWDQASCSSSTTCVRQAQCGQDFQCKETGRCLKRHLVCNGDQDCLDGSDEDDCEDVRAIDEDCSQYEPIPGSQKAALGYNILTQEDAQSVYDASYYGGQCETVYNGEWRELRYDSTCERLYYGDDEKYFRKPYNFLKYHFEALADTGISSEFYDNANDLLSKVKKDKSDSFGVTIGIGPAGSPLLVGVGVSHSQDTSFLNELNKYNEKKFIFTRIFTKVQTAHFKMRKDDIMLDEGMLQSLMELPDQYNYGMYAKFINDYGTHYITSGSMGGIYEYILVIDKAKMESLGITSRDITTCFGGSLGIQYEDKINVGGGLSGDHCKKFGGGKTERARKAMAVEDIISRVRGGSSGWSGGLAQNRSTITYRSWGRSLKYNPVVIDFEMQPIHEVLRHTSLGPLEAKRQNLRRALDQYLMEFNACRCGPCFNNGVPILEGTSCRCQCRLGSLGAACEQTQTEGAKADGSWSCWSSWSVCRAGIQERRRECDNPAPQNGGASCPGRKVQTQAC
Sequence of complement C8 (P07358 55-591, chain 2 of 3): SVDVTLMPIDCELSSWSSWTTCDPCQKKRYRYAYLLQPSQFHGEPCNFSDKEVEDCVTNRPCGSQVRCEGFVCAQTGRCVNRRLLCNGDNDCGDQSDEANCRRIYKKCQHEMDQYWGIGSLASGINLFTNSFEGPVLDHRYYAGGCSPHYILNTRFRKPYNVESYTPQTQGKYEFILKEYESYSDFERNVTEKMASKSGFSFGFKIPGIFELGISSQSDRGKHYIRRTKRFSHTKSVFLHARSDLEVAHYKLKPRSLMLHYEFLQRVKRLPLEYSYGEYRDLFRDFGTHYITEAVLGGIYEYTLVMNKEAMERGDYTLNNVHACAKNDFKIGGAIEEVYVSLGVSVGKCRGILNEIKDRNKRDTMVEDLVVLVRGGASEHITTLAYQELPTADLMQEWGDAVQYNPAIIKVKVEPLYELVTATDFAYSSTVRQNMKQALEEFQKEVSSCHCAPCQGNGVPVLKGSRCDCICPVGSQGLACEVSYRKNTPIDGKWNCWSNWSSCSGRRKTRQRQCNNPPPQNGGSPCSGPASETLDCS
Sequence of complement C8 (P07360 21-202, chain 3 of 3): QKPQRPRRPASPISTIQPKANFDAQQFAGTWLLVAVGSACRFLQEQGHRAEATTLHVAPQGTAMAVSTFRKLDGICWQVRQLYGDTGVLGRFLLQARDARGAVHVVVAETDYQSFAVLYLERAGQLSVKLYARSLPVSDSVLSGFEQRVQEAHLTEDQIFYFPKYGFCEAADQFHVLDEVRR

B1: recombinant full-length thrombospondin-1 (natural protein)
chain: not shown
**Q.** For B1, which Kd (complement C8) is on record?
**A.** The Kd was 311 nM.

**Q.** What about the Kd (complement factor H) of the same binder?
**A.** Its Kd is 203 nM.

Reference: article doi:10.1101/2024.07.31.606000 (bioRxiv, 2024)
